Earlier results on 1 substance are cited in publication PMC4115806.

This data set concerns the target EPCR (Homo sapiens) (UniProt Q9UNN8).

Sequence of protein C (P04070 43-197): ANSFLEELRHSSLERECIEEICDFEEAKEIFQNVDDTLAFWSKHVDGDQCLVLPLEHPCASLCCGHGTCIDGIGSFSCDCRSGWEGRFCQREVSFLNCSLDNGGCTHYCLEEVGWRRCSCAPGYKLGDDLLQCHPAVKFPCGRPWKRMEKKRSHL
Sequence of EPCR (Homo sapiens) (Q9UNN8 18-210): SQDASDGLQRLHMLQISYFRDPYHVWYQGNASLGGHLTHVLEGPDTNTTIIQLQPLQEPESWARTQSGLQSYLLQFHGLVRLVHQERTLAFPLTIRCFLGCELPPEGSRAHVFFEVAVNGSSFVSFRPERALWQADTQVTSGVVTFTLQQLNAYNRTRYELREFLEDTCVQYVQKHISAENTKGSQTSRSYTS

Take protein C (from UniProt P04070): the Kd is 30 nM.
